“And” between values parts separate entries of the source, which are not always exact repeats. Identical values can stand only once. Like-named read-outs stand apart in the source and are kept apart here.

Data set [1] concerns 14 amino acid peptide ALCTPSRGSLFTGR (SEQ ID NO:8). Description: Discontinuous FGE activity assay on peptide substrate (RP-HPLC). The format is biochemical. On the procedure:
[formula] where Et is the total enzyme in solution, and kcat and KM are the standard enzymatic parameters specified by the STRENDA commission. Units of enzyme specific activity are the katal, where 1 kat=1 mol·s^−1. Kinetic parameters were determined from nonlinear regression of [substrate] v. initial velocity using GraphPad prism.
The specific activity of FGE was measuring using a discontinuous enzymatic activity assay. The substrate for FGE was a 14 amino acid peptide containing the consensus sequence (H2N-[…]-COOH (SEQ ID NO:8)). The rate of reaction was determined by integrating the peak area at 215 nm of the starting material (Cys) and product (fGly) containing peptides on reversed-phase HPLC. The identity of product (and side product) peaks were determined by RP-HPLC MS/MS. Each aqueous reaction solution (60 μL) contained substrate peptide (100 μM), FGE (1 μM), DTT (1 mM), and buffer (25 mM triethanolamine, pH 9). A single time course consisted of 5 data points collected every 2 minutes. The reaction was initiated upon addition of FGE stock solution and vortexing for 3 s. Time points were quenched by diluting 10 μL of reaction mixture into 1 μL of 1 M HCl by hand with a micropipettor. After completion of the reaction, each time point was analyzed by RP-HPLC.
Substrate, product, and side products of the FGE substrate peptide […] (SEQ ID NO:8) were separated on RP-HPLC over 7 min with isocratic 18% MeCN in water containing 0.1% TFA. The integrated area of the fGly (2.1 min), Cys (3.3 min), βME-DS (3.6 min), and Cys-DS (6.2 min) forms of the substrate were used to calculate total area and each fraction thereof.
The specific activity of FGE was measured using a discontinuous enzymatic activity assay. The substrate for FGE was a 14 amino acid peptide containing the CXPXR consensus sequence ([…] (SEQ ID NO:8)). The rate of reaction was determined by integrating the peak areas at 215 nm of the substrate cysteine (Csub) and product (fGly) peptides on reversed-phase HPLC. The identities of product (and side product) peaks were determined by RP-HPLC MS/MS (see below). Each aqueous reaction solution (120 μL) contained Csub (100 μM), FGE (0.1-1 μM), DTT (1 mM), and buffer (25 mM TEAM, pH 9). A single time course included 5 data points collected at evenly spaced intervals. The reaction was initiated upon addition of FGE stock solution and vortexing for 3 s. The reaction vial was vortexed at 1,500 RPM and 25° C. in a thermomixer R (Eppendorf). Time points were hand quenched by adding 20 μL of reaction mixture to 2 μL of 1 M HCl using a micropipettor. After completion of the reaction, each time point was analyzed by RP-HPLC (see below).
Substrate, product, and side products of the FGE substrate peptide […] (SEQ ID NO:8) were separated on RP-HPLC over 7 min with isocratic 18% MeCN in water containing 0.1% TFA. The integrated areas of the fGly (2.1 min), Csub (3.3 min), the Csub/βME disulfide (Csub-βME, 3.6 min), and substrate/substrate disulfide (Csub-Csub, 6.1 min) forms of the substrate were used to calculate total area and each fraction thereof.
Individual FGE reactions were initiated by rapidly mixing FGE into a premixed buffered solution of Csub and reducing agent. It was assumed that all buffered solutions contained oxygen at ˜270 μM at 25° C. (based upon Henry's law). Time points were chemically quenched by hand with HCl. […]. The identities of both the Cys- and fGly-containing peptides were confirmed by LC-MS/MS (FIG. 11). These assignments were then correlated with HPLC retention times (FIG. 14, panel a). The integrated peak areas of substrate and product were used to calculate the initial velocity of FGE (FIG. 14, panel b) using the method described by Boeker (Biochem. J., (1984), 223, 15; and Biochem. J., (1985), 226, 29).

For the next data set, the system named is CT-1.1 tagged Her2. Description: 293 Expi transient co-transfection of FGE form and CT tagged antibody, conversion by mass-spectrometry. Type of data set: cell-based. The conditions noted are these: Expi 293F, FGE form co-transfected with Her2 CT1.1, harvest day 5-6. How it is done:
A 293 Expi transient co-transfection system (Life Technologies) was used for producing antibodies having a formylglycine residue at a selected site. The system produced high antibody titers (100-500 mg/L) with variable (10-95%) conversion. […] Expi 293F that were treated with or without 50 μM copper sulfate prior to transfection were transiently co-transfected in three independent experiments with expression plasmids for full-length human FGE with an N-terminal KDEL (SEQ ID NO:7) amino acid sequence (+KDEL) and CT tagged antibody at a ratio of 3:1 antibody:FGE DNA. The culture was harvested at 5-6 days post transfection, titer assessed by ELISA, and the protein was purified and conversion was measured by mass-spectrometry.
Expi 293F cells that were treated with or without 50 μM copper sulfate prior to transfection were transiently co-transfected with expression plasmids for various forms of human FGE (+KDEL, WT, myc-His) and CT tagged antibody at a ratio of 3:1 antibody:FGE DNA. The culture was harvested at 5 days post transfection, titer assessed by ELISA, the protein was purified and conversion was measured by mass-spectrometry.

The mark [2] stands for this setting: as purified from cell culture, not activated.
Setting [3] is: nonlinear regression to Michaelis-Menten equation.

B1: Hs-FGE: full length wild-type human FGE containing the N-terminal extension and the core, UniProt Q8NBK3 (protein, UniProt Q8NBK3 1-374, looked up)
chain: MAAPALGLVCGRCPELGLVLLLLLLSLLCGAAGSQEAGTGAGAGSLAGSCGCGTPQRPGAHGSSAAAHRYSREANAPGPVPGERQLAHSKMVPIPAGVFTMGTDDPQIKQDGEAPARRVTIDAFYMDAYEVSNTEFEKFVNSTGYLTEAEKFGDSFVFEGMLSEQVKTNIQQAVAAAPWWLPVKGANWRHPEGPDSTILHRPDHPVLHVSWNDAVAYCTWAGKRLPTEAEWEYSCRGGLHNRLFPWGNKLQPKGQHYANIWQGEFPVTNTGEDGFQGTAPVDAFPPNGYGLYNIVGNAWEWTSDWWTVHHSVEETLNPKGPPSGKDRVKKGGSYMCHRSYCYRYRCAARSQNTPDSSASNLGFRCAADRLPTMD
modifications: full-length
notes: full length wild-type human FGE containing the N-terminal extension and the core, UniProt Q8NBK3
B1 yielded a specific activity in data set [1] (setting [2]) of 850 pkat·mg^−1.

B2: +KDEL: full-length human FGE with an N-terminal KDEL (SEQ ID NO:7) amino acid sequence (protein, UniProt Q8NBK3 1-374, looked up)
chain: MAAPALGLVCGRCPELGLVLLLLLLSLLCGAAGSQEAGTGAGAGSLAGSCGCGTPQRPGAHGSSAAAHRYSREANAPGPVPGERQLAHSKMVPIPAGVFTMGTDDPQIKQDGEAPARRVTIDAFYMDAYEVSNTEFEKFVNSTGYLTEAEKFGDSFVFEGMLSEQVKTNIQQAVAAAPWWLPVKGANWRHPEGPDSTILHRPDHPVLHVSWNDAVAYCTWAGKRLPTEAEWEYSCRGGLHNRLFPWGNKLQPKGQHYANIWQGEFPVTNTGEDGFQGTAPVDAFPPNGYGLYNIVGNAWEWTSDWWTVHHSVEETLNPKGPPSGKDRVKKGGSYMCHRSYCYRYRCAARSQNTPDSSASNLGFRCAADRLPTMD
modifications: full-length N-terminal KDEL
With B2, the “Conversion (%)” value was 72% and 47% and 78% and 62% in the data set with CT-1.1 tagged Her2 (copper sulfate 0 μM); 93% and 94% and 95% and 88% with CT-1.1 tagged Her2 (copper sulfate 50 μM at Day 0).

B3: Sc-FGE: Streptomyces coelicolor formylglycine-generating enzyme, UniProt Q9F3C7, N-terminal hexahistidine tag, expressed in E. coli (protein)
chain: MAVAAPSPAAAAEPGPAARPRSTRGQVRLPGGEFAMGDAFGEGYPADGETPVHTVRLRPFHIDETAVTNARFAAFVKATGHVTDAERFGSSAVFHLVVAAPDADVLGSAAGAPWWINVRGAHWRRPEGARSDITGRPNHPVVHVSWNDATAYARWAGKRLPTEAEWEYAARGGLAGRRYAWGDELTPGGRWRCNIWQGRFPHVNTAEDGHLSTAPVKSYRPNGHGLWNTAGNVWEWCSDWFSPTYYAESPTVDPHGPGTGAARVLRGGSYLCHDSYCNRYRVAARSSNTPDSSSGNLGFRCANDADLTSGSAAE
modifications: left off: small tags and cut ends
notes: Streptomyces coelicolor formylglycine-generating enzyme, UniProt Q9F3C7, N-terminal hexahistidine tag, expressed in E. coli
The term Km denotes the substrate concentration at which the rate is half of its maximum. One may read the kcat as the number of substrate molecules converted per active site and unit of time at saturation. Consider B3, for which, in data set [1], the “increase of specific activity on activation” value is recorded as “more than an order of magnitude” and the specific activity turned out to be 3579±215 pkat·mg^−1. Moreover, the specific activity in data set [1] (setting [2]) was 214 pkat·mg^−1 and 214±34 pkat·mg^−1. For the same molecule, in data set [1] (setting [3]), the Km stood at 96 µM and the kcat came to 0.288 s⁻¹.

B4: WT: WT form of human FGE, non-KDEL (protein, UniProt Q8NBK3 34-374, looked up)
Formylglycine-generating …: SQEAGTGAGAGSLAGSCGCGTPQRPGAHGSSAAAHRYSREANAPGPVPGERQLAHSKMVPIPAGVFTMGTDDPQIKQDGEAPARRVTIDAFYMDAYEVSNTEFEKFVNSTGYLTEAEKFGDSFVFEGMLSEQVKTNIQQAVAAAPWWLPVKGANWRHPEGPDSTILHRPDHPVLHVSWNDAVAYCTWAGKRLPTEAEWEYSCRGGLHNRLFPWGNKLQPKGQHYANIWQGEFPVTNTGEDGFQGTAPVDAFPPNGYGLYNIVGNAWEWTSDWWTVHHSVEETLNPKGPPSGKDRVKKGGSYMCHRSYCYRYRCAARSQNTPDSSASNLGFRCAADRLPTMD
Consider B4, for which the “Conversion (%)” value was 77% in the data set with CT-1.1 tagged Her2 (copper sulfate 0 μM) and 86% in the data set with CT-1.1 tagged Her2 (copper sulfate 50 μM at Day 0).

The values above are taken from US11655492B2, “Activated formylglycine-generating enzymes and methods of producing and using the same” (R.P. Scherer Technologies, LLC, priority 2015, dated 2023).
